Experimental data reported in publication PMC3764193.

Molecular target: T1, recombinant (His)6-Bwc2 (Cryptococcus neoformans var. neoformans JEC21) (UniProt Q5EGQ1)
T1 sequence: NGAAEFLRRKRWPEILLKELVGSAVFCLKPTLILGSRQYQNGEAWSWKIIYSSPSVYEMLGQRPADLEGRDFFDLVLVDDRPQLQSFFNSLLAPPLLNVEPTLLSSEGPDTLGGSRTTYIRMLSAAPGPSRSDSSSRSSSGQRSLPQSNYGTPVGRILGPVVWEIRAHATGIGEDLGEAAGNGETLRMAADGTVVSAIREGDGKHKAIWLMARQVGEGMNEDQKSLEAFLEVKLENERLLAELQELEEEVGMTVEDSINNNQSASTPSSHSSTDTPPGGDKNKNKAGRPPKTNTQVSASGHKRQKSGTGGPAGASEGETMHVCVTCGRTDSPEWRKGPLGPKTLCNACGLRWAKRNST
Experiment: EMSA
Settings: 1X EMSA buffer (from 5X: 20% w/v glycerol, 5 mM MgCl2, 250 mM NaCl, 2.5 mM EDTA pH 8, 10 mM DTT, +/-12 uM ZnSO4) + 1X phosphate buffer, 20 ul; 20 min …

## GTAGTCACCAGTCATTCAGTTACTCTGTTATGACGTGACGTCGTTACTCTCGATCTTCATCTCGATCTCCACCTTGCAAGCTTTTCAGGCTTTTTACTCATCGTTCACTATATAATACGATACCACACTTGACATTTCTTCGGTATGTATAAAACGCAGTCGCGAGTACTTCCTTCTGCTTTTGCAACAAACACGTCTGCATTTGTTGCCAAGTATTTATATCAGCATTAAGTACATGAGGTTC (double strand) [P1 (UVE1 promoter)]
  binding: binds
